Publication PMC3285596 (PLoS Pathogens, 2012)

Molecular target: T1, STAT1_(1–683), truncated, unphosphorylated human STAT1 (human, UniProt P42224 1-683)
T1 construct: also called unphosphorylated STAT1_(1–683); not shown: HA, C-terminal, kept
T1 sequence (looked up): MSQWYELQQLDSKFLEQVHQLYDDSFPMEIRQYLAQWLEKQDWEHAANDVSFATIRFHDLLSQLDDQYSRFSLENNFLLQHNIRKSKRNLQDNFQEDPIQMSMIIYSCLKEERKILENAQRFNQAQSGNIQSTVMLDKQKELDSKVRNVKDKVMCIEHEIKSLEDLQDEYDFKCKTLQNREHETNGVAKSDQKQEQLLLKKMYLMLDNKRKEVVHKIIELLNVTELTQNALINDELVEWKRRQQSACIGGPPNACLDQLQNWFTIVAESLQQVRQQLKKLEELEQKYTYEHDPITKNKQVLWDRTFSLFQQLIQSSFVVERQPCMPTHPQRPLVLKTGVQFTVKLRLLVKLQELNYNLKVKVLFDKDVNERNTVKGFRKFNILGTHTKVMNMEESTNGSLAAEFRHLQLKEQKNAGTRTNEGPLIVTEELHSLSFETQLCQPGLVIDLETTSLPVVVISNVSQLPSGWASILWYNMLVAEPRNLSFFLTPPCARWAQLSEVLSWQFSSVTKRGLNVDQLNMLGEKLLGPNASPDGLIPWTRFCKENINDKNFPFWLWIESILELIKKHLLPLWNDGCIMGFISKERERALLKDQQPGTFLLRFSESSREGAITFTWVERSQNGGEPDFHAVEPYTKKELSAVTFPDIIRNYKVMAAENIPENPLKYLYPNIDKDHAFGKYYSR
Test: ELISA
Details: both partners purified

B1: Ebola virus (Zaire) VP24 residues 1-233 (EBOV_(1–233)) (domain or fragment)
chain: MAKATGRYNLISPKKDLEKGVVLSDLCNFLVSQTIQGWKVYWAGIEFDVTHKGMALLHRLKTNDFAPAWSMTRNLFPHLFQNPNSTIESPLWALRVILAAGIQDQLIDQSLIEPLAGALGLISDWLLTTNTNHFNMRTQRVKEQLSLKMLSLIRSNILKFINKLDALHVVNYNGLLSSIEIGTQNHTIIITRTNMGFLVELQEPDKSAMNRMKPGPAKFSLLHESTLKAFTQG
Q: Does B1 bind?
A: Result: binds
